# Test results as given in patent US20150175707A1.
# What was measured:
# [1] = molecular target: FcγRIIIa receptor, V158 (high affinity) variant, on Jurkat effector cells (UniProt P08637); assay: cell-based or functional assay
# [2] = molecular target: Protein A (ready-to-use protein A sensortips, Fortebio) (Staphylococcus aureus) (UniProt P38507); assay: ratio of the concentrations by A280 and by Octet protein A sensor tips
# [3] = molecular target: IgG1-005-E345R/E430G/S440Y (human); assay: HP-SEC with multiple angle light scattering; Fc:Fc self-oligomerization
# [4] = molecular target: IgG1-005-E345R/E430G/S440Y (human); assay: dynamic light scattering, 2.86 mg/mL in PBS pH 7.4; Fc:Fc self-oligomerization
# [5] = molecular target: C1q from pooled human serum (human) (UniProt P02745); assay: C1q binding ELISA; antibody dilution series coated, 3% pooled human serum as C1q source, anti-C1q detection
# [6] = molecular target: Protein A (ready-to-use protein A sensortips, Fortebio) (Staphylococcus aureus) (UniProt P38507); assay: Octet QK, protein A sensor tips, against an IgG standard curve; A280 concentration of the sample 2905 µg/ml
# [7] = molecular target: Protein A (ready-to-use protein A sensortips, Fortebio) (Staphylococcus aureus) (UniProt P38507); assay: Octet QK, protein A sensor tips, against an IgG standard curve; A280 concentration of the sample 3818 µg/ml
# [8] = molecular target: IgG1-005-E345R/E430G/S440K (human); assay: HP-SEC of an equimolar mixture, PBS pH 7.4; Fc:Fc hetero-oligomerization
# [9] = molecular target: IgG1-005-E345R/E430G/Y436I/S440K (human); assay: as above
% multimers (HP-SEC) [8],% multimers (HP-SEC) [9],Substance,EC50 (ADCC reporter assay) [1],Maximal signal (ADCC reporter assay) [1],A280/Protein A × 100 (%) [2],apparent average MW of the multimeric peak (MALS) [3],monomeric subunits per complex (MALS) (monomeric subunits) [3],apparent MW (DLS) [4],monomeric subunits per complex (DLS) (monomeric subunits) [4],EC50 [5],Octet-Protein A (apparent IgG concentration) [6],Octet-Protein A (apparent IgG concentration) [7]
,,IgG1-005-E345R/E430G/S440Y (antibody),36 ng/mL,394000 RLU,0.71%,772 kDa,5.4,876 kDa,6.17,0.52 µg/mL,2050 µg/mL,
,,"HuMab 005 (wild type IgG1-005), fully human IgG1,κ antibody against human CD38",9.5 ng/mL,335000 RLU,0.95%,,,,,1.55 µg/mL,,3620 µg/mL
,,HuMab 005 mutant E345R (antibody),,,,,,,,0.836 µg/mL,,
65%,93%,IgG1-005-E345R/E430G/K439E/S440Y (antibody),,,,,,,,,,
